Where “and” joins values, the source holds several entries; their conditions need not be identical. Equal entries are not always repeated.
What was measured:
RBPJ R91G = RBPJ R91G (Mus musculus, UniProt P31266 53-474, R91G); assay: EMSA; 5, 25, 125 nM protein; ITC: 50 mM sodium phosphate pH 6.5, 150 mM NaCl, 10 C, DNA 100 uM in syringe, protein 10 uM in cell; EMSA: 20 min at room temperature, buffer as previously described (not given); settings: protein: recombinant; tags: GST-fusion vector pGEX-6P-1; label: 5' IRDye-700 on bottom strand; blunt; S3 primer annealed to S2 and filled in with DNA polymerase I
RBPJ R91G, sequence (P31266 53-474 R91G): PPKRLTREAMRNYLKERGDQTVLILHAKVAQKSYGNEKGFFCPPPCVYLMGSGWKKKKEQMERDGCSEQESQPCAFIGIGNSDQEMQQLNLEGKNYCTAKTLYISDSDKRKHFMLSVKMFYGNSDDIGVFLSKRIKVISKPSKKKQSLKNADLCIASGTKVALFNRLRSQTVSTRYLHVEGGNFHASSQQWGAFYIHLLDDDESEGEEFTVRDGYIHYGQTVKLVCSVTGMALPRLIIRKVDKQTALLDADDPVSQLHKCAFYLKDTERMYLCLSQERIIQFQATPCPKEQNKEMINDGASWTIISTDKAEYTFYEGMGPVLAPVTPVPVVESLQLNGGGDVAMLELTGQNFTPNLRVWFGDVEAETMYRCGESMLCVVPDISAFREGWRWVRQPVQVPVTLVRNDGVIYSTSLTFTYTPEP

[1] = molecular target: T1, mouse RBPJ S358R, conserved core (residues 53-474) (mouse, UniProt P31266 53-474, S358R); assay: ITC; MicroCal VP-ITC, 25 °C, 50 mM sodium phosphate pH 6.5, 150 mM NaCl; ligand (RAM peptide or SMT3-SHARP) in the syringe, RBPJ in the cell: 100 µM into 10 µM (R91G), 50 µM into 5 µM (F92V), 40 µM into 4 µM (S358R); 20 injections of 14 µL; 1-site binding model; mean and SD of triplicates; settings: both partners purified
T1 construct: RBPJ (Rbpj), mouse, conserved core, residues 53-474, with S358R; Variant found in human AOS patients (human S332R), put into the mouse protein by mutagenesis; also called analogous to human S332R; source: pGEX-6P-1 plasmid, QuikChange mutagenesis
T1 sequence (P31266 53-474 S358R): as the sequence (P31266 53-474 R91G) above, with G39R, S306R counted along it

[2] = molecular target: T2, mouse RBPJ F92V, conserved core (residues 53-474) (mouse, UniProt P31266 53-474, F92V); assay: as above; settings: both partners purified
T2 construct: RBPJ (Rbpj), mouse, conserved core, residues 53-474, with F92V; Variant found in human AOS patients (human F66V), put into the mouse protein by mutagenesis; also called analogous to human F66V; source: pGEX-6P-1 plasmid, QuikChange mutagenesis
T2 sequence (P31266 53-474 F92V): as the sequence (P31266 53-474 R91G) above, with G39R, F40V counted along it

[3] = molecular target: T3, mouse RBPJ R91G, conserved core (residues 53-474) (mouse, UniProt P31266 53-474, R91G); assay: as above; settings: both partners purified
T3 construct: RBPJ (Rbpj), mouse, conserved core, residues 53-474, with R91G; Variant found in human AOS patients (human R65G), put into the mouse protein by mutagenesis; also called analogous to human R65G; source: pGEX-6P-1 plasmid, QuikChange mutagenesis
T3 sequence (P31266 53-474 R91G): as the sequence (P31266 53-474 R91G) above

[4] = molecular target: T4, RBPJ 53-474 (WT mouse RBPJ, conserved core) (mouse, UniProt P31266 53-474); assay: ITC; MicroCal VP-ITC; NOTCH1 peptide or SMT3-SHARP in the syringe (40-100 uM), RBPJ in the cell (4-10 uM); 25 C (298 K); 50 mM sodium phosphate pH 6.5, 150 mM NaCl; 20 injections of 14 uL; 1-site binding model; each of three replicates printed on its own; settings: both partners purified
T4 construct: RBPJ, mouse, conserved core (NTD, BTD, linker, CTD), residues 53-474; PDB 3BRG (RBPJ on DNA) was used for modelling only; also called WT RBPJ
T4 sequence (P31266 53-474): as the sequence (P31266 53-474 R91G) above, with G39R counted along it

RBPJ 53-474, K195E [5] = molecular target: T5, RBPJ 53-474, K195E (mouse, UniProt P31266 53-474, K195E); assay: as above; settings: both partners purified
T5 construct: RBPJ, mouse, conserved core, residues 53-474, with K195E (analogous to the human AOS variant K169E); AOS-associated human variant placed in the mouse protein; also called RBPJ^K195E (human K169E)
T5 sequence (P31266 53-474 K195E): as the sequence (P31266 53-474 R91G) above, with G39R, K143E counted along it

RBPJ 53-474, E89G [6] = molecular target: T6, RBPJ 53-474, E89G (mouse, UniProt P31266 53-474, E89G); assay: as above; settings: both partners purified
T6 construct: RBPJ, mouse, conserved core, residues 53-474, with E89G (analogous to the human AOS variant E63G); AOS-associated human variant placed in the mouse protein; also called RBPJ^E89G (human E63G)
T6 sequence (P31266 53-474 E89G): as the sequence (P31266 53-474 R91G) above, with E37G, G39R counted along it

RBPJ 53-474, S358R [7] = molecular target: T7, RBPJ 53-474, S358R (mouse, UniProt P31266 53-474, S358R); assay: as above; settings: both partners purified
T7 construct: RBPJ, mouse, conserved core, residues 53-474, with S358R (analogous to the human AOS variant S332R); AOS-associated human variant placed in the mouse protein; also called RBPJ^S358R (human S332R)
T7 sequence (P31266 53-474 S358R): as the sequence (P31266 53-474 R91G) above, with G39R, S306R counted along it

RBPJ 53-474, F92V [8] = molecular target: T8, RBPJ 53-474, F92V (mouse, UniProt P31266 53-474, F92V); assay: as above; settings: both partners purified
T8 construct: RBPJ, mouse, conserved core, residues 53-474, with F92V (analogous to the human AOS variant F66V); AOS-associated human variant placed in the mouse protein; also called RBPJ^F92V (human F66V)
T8 sequence (P31266 53-474 F92V): as the sequence (P31266 53-474 R91G) above, with G39R, F40V counted along it

RBPJ 53-474, R91G = molecular target: T9, RBPJ 53-474, R91G (mouse, UniProt P31266 53-474, R91G); assay: as above; settings: both partners purified
T9 construct: RBPJ, mouse, conserved core, residues 53-474, with R91G (analogous to the human AOS variant R65G); AOS-associated human variant placed in the mouse protein; also called RBPJ^R91G (human R65G)
T9 sequence (P31266 53-474 R91G): as the sequence (P31266 53-474 R91G) above

[9] = molecular target: T4, RBPJ 53-474 (WT mouse RBPJ, conserved …); assay: as above; settings: both partners purified; remark: listed apart in the source
RBPJ 53-474, K195E [10] = molecular target: T5, RBPJ 53-474, K195E; assay: as above; settings: both partners purified; remark: listed apart in the source
RBPJ 53-474, E89G [11] = molecular target: T6, RBPJ 53-474, E89G; assay: as above; settings: both partners purified; remark: listed apart in the source
RBPJ 53-474, S358R [12] = molecular target: T7, RBPJ 53-474, S358R; assay: as above; settings: both partners purified; remark: listed apart in the source
RBPJ 53-474, F92V [13] = molecular target: T8, RBPJ 53-474, F92V; assay: as above; settings: both partners purified; remark: listed apart in the source

B1: EMSA probe 1xCSL (1016ic) (dsDNA)
DNA 1: CGAACGAGGCAAACCTAGGCTAGAGGCACCGTGGGAAACTAGTGCGGGCGTGGCT
DNA 2: AGCCACGCCCGCACTAGTTTCCCACGGTGCCTCTAGCCTAGGTTTGCCTCGTTCG
B1: no binding (RBPJ R91G).

B2: RBPJ association module (RAM) domain peptide of the human Notch1 intracellular domain, residues 1754-1781 (peptide)
peptide: VLLSRKRRRQHGQLWFPEGFKVSEASKK
notes: NOTCH1, human, RAM domain of the intracellular domain, residues 1754-1781; also called NICD; NICD1; source: synthetic peptide
B2 was tested, and the Kd [1] was 13.3 nM, the Kd [2] was 11.5 nM and the Kd [3] was 21.4 nM.

B3: human NOTCH1 peptide consisting of residues 1754-1781 (peptide, UniProt P46531 1754-1781, looked up)
peptide: VLLSRKRRRQHGQLWFPEGFKVSEASKK
notes: NOTCH1, human, RAM region, residues 1754-1781; also called hN1 RAM 1754-1781; NICD1
With B3 the Ka [4] was 5e+07 M⁻¹ (2×) and 4.4e+07 M⁻¹, the Kd [4] was 20 nM and 22 nM and the “stoichiometry N” value [4] was 1.21 and 1.2 and 1.14. The Ka (RBPJ 53-474, K195E [5]) was 7.46e+07 M⁻¹ and 3.08e+07 M⁻¹ and 4.69e+07 M⁻¹, the Kd (RBPJ 53-474, K195E [5]) was 13 nM and 32 nM and 21 nM and the “stoichiometry N” value (RBPJ 53-474, K195E [5]) was 1.33 and 1.2 and 1.23. The Ka (RBPJ 53-474, E89G [6]) was 6.24e+07 M⁻¹ and 7.22e+07 M⁻¹ and 3.37e+07 M⁻¹, the Kd (RBPJ 53-474, E89G [6]) was 16 nM and 14 nM and 30 nM and the “stoichiometry N” value (RBPJ 53-474, E89G [6]) was 0.84 and 0.73 and 1.32. For the same binder, the “stoichiometry N” value (RBPJ 53-474, S358R [7]) was 0.86 and 0.72 and 0.77, the Ka (RBPJ 53-474, F92V [8]) was 1.42e+08 M⁻¹ and 1.04e+08 M⁻¹ and 5.61e+07 M⁻¹ and the Kd (RBPJ 53-474, F92V [8]) was 7 nM and 10 nM and 18 nM. For the same binder, the “stoichiometry N” value (RBPJ 53-474, F92V [8]) was 0.85 and 0.75 and 0.63, the Ka (RBPJ 53-474, R91G) was 6.04e+07 M⁻¹ and 6.65e+07 M⁻¹ and 3.08e+07 M⁻¹ and the Kd (RBPJ 53-474, R91G) was 17 nM and 15 nM and 32 nM. For the same binder, the “stoichiometry N” value (RBPJ 53-474, R91G) was 1.06 and 1.03 and 0.92.

B4: SMT3-SHARP 2776-2833, fusion protein with the region of the human SHARP co-repressor that binds RBPJ (domain or fragment, UniProt Q96T58 2776-2833, looked up)
chain: RASANENSRFHPGSMPVIDDRPADAGSGAGLRVNTSEGVVLLSYSGQKTEGPQRISAK
notes: SHARP (SPEN), human, residues 2776-2833; not shown: SMT3, N-terminal, kept
B4 showed a Kd [1] of 7.9 nM and a Kd [2] of 10.3 nM.

B5: SMT3-MINT 2776-2833 (human SHARP residues 2776-2833 with N-terminal SMT3 and His tag) (domain or fragment, UniProt Q96T58 2776-2833, looked up)
chain: RASANENSRFHPGSMPVIDDRPADAGSGAGLRVNTSEGVVLLSYSGQKTEGPQRISAK
notes: SHARP (MINT), human, residues 2776-2833; not shown: SMT3, N-terminal, kept
For B5, the “stoichiometry N” value [9] was 1.2 and 1 and 1.06, the Kd (RBPJ 53-474, K195E [10]) was 12 nM and 35 nM and 17 nM and the “stoichiometry N” value (RBPJ 53-474, K195E [10]) was 0.94 and 0.84 and 0.95. The “stoichiometry N” value (RBPJ 53-474, E89G [11]) was 1.37 and 1.34 and 1.15, the Ka (RBPJ 53-474, S358R [12]) was 9.83e+07 M⁻¹ and 1.28e+08 M⁻¹ and 1.73e+08 M⁻¹ and the Kd (RBPJ 53-474, S358R [12]) was 10 nM and 7.8 nM and 6 nM. For the same binder, the “stoichiometry N” value (RBPJ 53-474, S358R [12]) was 0.89 and 1.02 and 1.08, the Ka (RBPJ 53-474, F92V [13]) was 8.9e+07 M⁻¹ (2×) and 1.2e+08 M⁻¹ and the Kd (RBPJ 53-474, F92V [13]) was 11 nM and 11.3 nM and 9 nM. For the same binder, the “stoichiometry N” value (RBPJ 53-474, F92V [13]) was 1.17 and 1.09 and 1.12.

Source: paper PMC12646667, “Defective Notch1 signaling in endothelial cells drives pathogenesis in a mouse model of Adams-Oliver syndrome” (The Journal of Clinical Investigation, 2025)
